Source: PMC12431651
Where two headings read alike, the source gives them in different places.

Assays:
[1] = molecular target: MED25 ACID (Homo sapiens) (UniProt Q71SY5); settings: cited from earlier work
[2] = molecular target: MED25 ACID (Homo sapiens) (UniProt Q71SY5); settings: cited from earlier work; remark: listed apart in the source
[3] = molecular target: MED25 ACID (Homo sapiens) (UniProt Q71SY5); settings: cited from earlier work; remark: listed apart in the source
[4] = molecular target: MED25 ACID (Homo sapiens) (UniProt Q71SY5); assay: ITC; settings: cited from earlier work
[5] = molecular target: His-tagged MED25 ACID (aa 389–543) (human) (UniProt Q71SY5); assay: BLI; His-MED25 ACID (1 µM) captured on Ni-NTA biosensors, NS1 proteins as analytes in 2-fold dilutions; 20 mM Tris pH 8.0, 200 mM NaCl, 1 mM TCEP, 0.05% Tween, 25°C; global fit, 1:1 model for NS1, 2:1 heterogeneous model for NS1Δα3 and the point mutants
His-tagged MED25 ACID (aa 389–543) (human), sequence (Q71SY5 389-543): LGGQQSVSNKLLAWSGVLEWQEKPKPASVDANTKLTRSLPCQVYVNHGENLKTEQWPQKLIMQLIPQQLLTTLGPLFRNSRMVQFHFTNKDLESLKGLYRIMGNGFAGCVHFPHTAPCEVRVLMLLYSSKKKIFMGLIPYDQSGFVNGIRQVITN

[6] = molecular target: MED25 ACID (H1 interface) (Homo sapiens) (UniProt Q71SY5); assay: NMR; settings: cited from earlier work
MED25 ACID (H1 interface) (Homo sapiens), sequence (Q71SY5 389-543): as above

[7] = molecular target: MED25 ACID (Homo sapiens) (UniProt Q71SY5); assay: NMR; settings: cited from earlier work
[8] = molecular target: MED25 ACID (Homo sapiens) (UniProt Q71SY5); settings: cited from earlier work; remark: listed apart in the source
[9] = molecular target: MED25 ACID (Homo sapiens) (UniProt Q71SY5); settings: cited from earlier work; remark: listed apart in the source
[10] = molecular target: MED25 ACID (Homo sapiens) (UniProt Q71SY5); settings: cited from earlier work; remark: listed apart in the source
[11] = molecular target: MED25 ACID (Homo sapiens) (UniProt Q71SY5); settings: cited from earlier work; remark: listed apart in the source
[12] = molecular target: MED25 ACID (Homo sapiens) (UniProt Q71SY5); settings: cited from earlier work; remark: listed apart in the source

MED25 ACID (Homo sapiens), sequence (Q71SY5 389-543): as above
ERM TAD, sequence (P41161 38-68): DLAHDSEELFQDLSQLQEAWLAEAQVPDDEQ
ATF6α TAD, sequence (P18850 40-66): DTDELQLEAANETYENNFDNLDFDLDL
p53 TAD2, sequence (P04637 38-61): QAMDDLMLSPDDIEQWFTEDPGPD
p53 TAD, sequence (P04637 1-61): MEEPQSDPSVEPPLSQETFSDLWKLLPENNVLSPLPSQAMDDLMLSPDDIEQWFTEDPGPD

Substance | Kd1 (binding mode 1) [5] [nM] | Kd2 (binding mode 2) [5] [nM] | ka1 (binding mode 1) [5] [M⁻¹ s⁻¹] | ka2 (binding mode 2) [5] [M⁻¹ s⁻¹] | kdis1 (binding mode 1) [5] [s⁻¹] | kdis2 (binding mode 2) [5] [s⁻¹] | also measured
ATF6α TAD (from UniProt P18850) |  |  |  |  |  |  | Kd [1]: 0.5 µM
ERM TAD (from UniProt P41161) |  |  |  |  |  |  | Kd [2]: 0.6 µM
NS1 (from UniProt P0DOE8) |  |  |  |  |  |  | Kd [3]: 0.02 µM; Kd [4]: 0.015 µM
NS1 E110A (natural protein) | 1630 | 1320 | 120000 | 3000 | 0.19 | 0.0034 | 
NS1 F56A (natural protein) | 333 | 72 | 130000 | 20000 | 0.043 | 0.0014 | 
NS1 I54A (natural protein) | 71.2 | 28.3 | 200000 | 80000 | 0.014 | 0.0023 | 
NS1 K112A (natural protein) | 68.1 | 7.5 | 160000 | 140000 | 0.011 | 0.0011 | 
NS1 M122A (natural protein) | 42.3 | 9.4 | 210000 | 120000 | 0.009 | 0.0011 | 
NS1 α3 peptide (from UniProt P0DOE8) |  |  |  |  |  |  | Kd [6]: 500 µM; Kd [7]: 10 µM
NS1Δα3 (NS1 aa 1–116) (domain or fragment) | 615 | 850 | 80000 | 3000 | 0.05 | 0.0024 | 
RSV NS1, full-length wild type (aa 1–139) (natural protein) |  |  |  |  |  |  | Kd [5]: 0.0165 µM; koff [5]: 0.002 s⁻¹; kon [5]: 120000 M⁻¹ s⁻¹
VP16 TAD1 (from UniProt P06492) |  |  |  |  |  |  | Kd [8]: 1.6 µM; Kd [9]: 1.6 µM
VP16 TAD (from UniProt P06492) |  |  |  |  |  |  | Kd [10]: 0.05 µM
p53 TAD2 (from UniProt P04637) |  |  |  |  |  |  | Kd [11]: 8.1 µM
p53 TAD (from UniProt P04637) |  |  |  |  |  |  | Kd [12]: 0.8 µM
